Assay results reported in US20260216366A1, “CONJUGATE AND USES THEREOF” (Full-Life Technologies UK Limited, priority 2022, published 2026).

Key:
[1] = Pharmacokinetic study of CLDN18.2-linker conjugates (serum ELISA, NCA); assay type: in vivo, BALB/c mice; details: for blood circulation of the CLDN18.2 conjugates: FIG. 2, CLDN18.2 conjugate of the named linker compared to the control group; for AUCall / Cl / T1/2 / Vd: BALB/c mice, intravenous, about 1 mg/kg, serum, over 48 hours
Method: The in vivo pharmacokinetic profile of the CLDN18.2-linker conjugates was analyzed. Briefly, BALB/c mice were administered with the conjugates by intravenous injection at a dose of about 1 mg/kg. Then, whole blood of the animal was collected at different time points over 48 hours.
(§1) The whole blood was collected into a tube without anticoagulation and maintained at room temperature for more than 30 minutes, followed by centrifuge at approximately 5000 rpm at 4° C. for 5 minutes to obtain serum. Concentration of the conjugates in serum was then measured by ELISA using HRP-labeled goat anti-alpaca IgG VHH domain secondary antibody. The data was further analyzed using PK Solver software, and the […] (NCA) was used to evaluate the pharmacokinetic parameters, as shown in Table 7 and FIG. 2.

[2] = Pharmacokinetic study of FAP-linker conjugates (serum ELISA, NCA); assay type: in vivo, BALB/c mice; details: BALB/c mice, intravenous, about 1 mg/kg, serum, over 48 hours
Method: he in vivo pharmacokinetic profile of the FAP-linker conjugates was analyzed. Briefly, BALB/c mice were administered with the conjugates by intravenous injection at a dose of about 1 mg/kg. Then, whole blood of the animal was collected at different time periods over 48 hours.
as §1, with “centrifugated” for “centrifuge”, “8” for “7”, “3.” for “2.”

Cc1ccc(CCCC(=O)NCCCCC(NC(=O)CNC(=O)CCC(C(=O)O)N2CCN(CC(=O)O)CCN(CC(=O)O)CCN(CC(=O)O)CC2)C(=O)NCc2ccc(N=C=S)cc2)cc1 (centres unmarked) [L010]
blood circulation of the CLDN18.2 conjugates [1]: significantly prolonged blood circulation

CCCCCCCCCCCCC(=O)NCCCCC(NC(=O)CNC(=O)CCC(C(=O)O)N1CCN(CC(=O)O)CCN(CC(=O)O)CCN(CC(=O)O)CC1)C(=O)NCc1ccc(N=C=S)cc1 (centres unmarked) [L011]
blood circulation of the CLDN18.2 conjugates [1]: significantly prolonged blood circulation

B1: CLDN18.2-L007: Claudin 18.2 sdAb (SEQ ID NO. 1) conjugated with functional linker L007 (conjugate)
VHH: EVQLVESGGGLVQPGGSLRLSCAASGSFFRIVAMGWYRQAPGSQRELVATITRGGSTYYADSVKGRFTISRDNAKNTLYLQMNSLRAEDTAVYYCNVRVEVPFMQPNDYWGQGTLVTVSS
modifications: functional linker L007 conjugated
AUCall [1]: 33100 ± 4920 ng·h/mL
Cl [1]: 0.45 ± 0.05 mL/min/kg
T1/2 [1]: 361 ± 73.8 min
Vd [1]: 0.183 ± 0.014 L/kg

B2: CLDN18.2-DOTAGA: Claudin 18.2 sdAb (SEQ ID NO. 1) conjugated with DOTAGA, used as control for chelating imaging radioisotope (conjugate)
VHH: EVQLVESGGGLVQPGGSLRLSCAASGSFFRIVAMGWYRQAPGSQRELVATITRGGSTYYADSVKGRFTISRDNAKNTLYLQMNSLRAEDTAVYYCNVRVEVPFMQPNDYWGQGTLVTVSS
modifications: DOTAGA chelator conjugated
AUCall [1]: 1450 ± 149 ng·h/mL
Cl [1]: 10.2 ± 1.2 mL/min/kg
T1/2 [1]: 32.9 ± 2.52 min
Vd [1]: 0.245 ± 0.032 L/kg

B3: CLDN18.2-L006: Claudin 18.2 sdAb (SEQ ID NO. 1) conjugated with functional linker L006 (conjugate)
VHH: EVQLVESGGGLVQPGGSLRLSCAASGSFFRIVAMGWYRQAPGSQRELVATITRGGSTYYADSVKGRFTISRDNAKNTLYLQMNSLRAEDTAVYYCNVRVEVPFMQPNDYWGQGTLVTVSS
modifications: functional linker L006 conjugated
AUCall [1]: 650 ± 69 ng·h/mL
Cl [1]: 22.7 ± 2.2 mL/min/kg
T1/2 [1]: 13.5 ± 0.36 min
Vd [1]: 0.408 ± 0.026 L/kg

B4: CLDN18.2-L011: Claudin 18.2 sdAb (SEQ ID NO. 1) conjugated with functional linker L011 (conjugate)
VHH: EVQLVESGGGLVQPGGSLRLSCAASGSFFRIVAMGWYRQAPGSQRELVATITRGGSTYYADSVKGRFTISRDNAKNTLYLQMNSLRAEDTAVYYCNVRVEVPFMQPNDYWGQGTLVTVSS
modifications: functional linker L011 conjugated
AUCall [1]: 15700 ± 816 ng·h/mL
Cl [1]: 0.95 ± 0.017 mL/min/kg
T1/2 [1]: 90 ± 10.1 min
Vd [1]: 0.106 ± 0.008 L/kg

B5: CLDN18.2-L009: Claudin 18.2 sdAb (SEQ ID NO. 1) conjugated with functional linker L009 (conjugate)
VHH: EVQLVESGGGLVQPGGSLRLSCAASGSFFRIVAMGWYRQAPGSQRELVATITRGGSTYYADSVKGRFTISRDNAKNTLYLQMNSLRAEDTAVYYCNVRVEVPFMQPNDYWGQGTLVTVSS
modifications: functional linker L009 conjugated
AUCall [1]: 148000 ± 5140 ng·h/mL
Cl [1]: 0.083 ± 0 mL/min/kg
T1/2 [1]: 1490 ± 323 min
Vd [1]: 0.166 ± 0.023 L/kg

B6: CLDN18.2-L005: Claudin 18.2 sdAb (SEQ ID NO. 1) conjugated with functional linker L005 (conjugate)
VHH: EVQLVESGGGLVQPGGSLRLSCAASGSFFRIVAMGWYRQAPGSQRELVATITRGGSTYYADSVKGRFTISRDNAKNTLYLQMNSLRAEDTAVYYCNVRVEVPFMQPNDYWGQGTLVTVSS
modifications: functional linker L005 conjugated
AUCall [1]: 881 ± 118 ng·h/mL
Cl [1]: 17.8 ± 2 mL/min/kg
T1/2 [1]: 13.4 ± 1.56 min
Vd [1]: 0.284 ± 0.017 L/kg

B7: CLDN18.2-L010: Claudin 18.2 sdAb (SEQ ID NO. 1) conjugated with functional linker L010 (conjugate)
VHH: EVQLVESGGGLVQPGGSLRLSCAASGSFFRIVAMGWYRQAPGSQRELVATITRGGSTYYADSVKGRFTISRDNAKNTLYLQMNSLRAEDTAVYYCNVRVEVPFMQPNDYWGQGTLVTVSS
modifications: functional linker L010 conjugated
AUCall [1]: 14500 ± 149 ng·h/mL
Cl [1]: 1.02 ± 0.033 mL/min/kg
T1/2 [1]: 175 ± 7.02 min
Vd [1]: 0.199 ± 0.012 L/kg

B8: CLDN18.2-L012: Claudin 18.2 sdAb (SEQ ID NO. 1) conjugated with functional linker L012 (conjugate)
VHH: EVQLVESGGGLVQPGGSLRLSCAASGSFFRIVAMGWYRQAPGSQRELVATITRGGSTYYADSVKGRFTISRDNAKNTLYLQMNSLRAEDTAVYYCNVRVEVPFMQPNDYWGQGTLVTVSS
modifications: functional linker L012 conjugated
AUCall [1]: 2220 ± 223 ng·h/mL
Cl [1]: 7.02 ± 0.7 mL/min/kg
T1/2 [1]: 17.3 ± 1.14 min
Vd [1]: 0.151 ± 0.025 L/kg

B9: CLDN18.2-L008: Claudin 18.2 sdAb (SEQ ID NO. 1) conjugated with functional linker L008 (conjugate)
VHH: EVQLVESGGGLVQPGGSLRLSCAASGSFFRIVAMGWYRQAPGSQRELVATITRGGSTYYADSVKGRFTISRDNAKNTLYLQMNSLRAEDTAVYYCNVRVEVPFMQPNDYWGQGTLVTVSS
modifications: functional linker L008 conjugated
AUCall [1]: 1880 ± 177 ng·h/mL
Cl [1]: 7.32 ± 0.367 mL/min/kg
T1/2 [1]: 38.2 ± 4.02 min
Vd [1]: 0.375 ± 0.043 L/kg

B10: CLDN18.2-L003: Claudin 18.2 sdAb (SEQ ID NO. 1) conjugated with functional linker L003 (conjugate)
VHH: EVQLVESGGGLVQPGGSLRLSCAASGSFFRIVAMGWYRQAPGSQRELVATITRGGSTYYADSVKGRFTISRDNAKNTLYLQMNSLRAEDTAVYYCNVRVEVPFMQPNDYWGQGTLVTVSS
modifications: functional linker L003 conjugated
AUCall [1]: 460 ± 77 ng·h/mL
Cl [1]: 30.2 ± 4.1 mL/min/kg
T1/2 [1]: 11.2 ± 1.56 min
Vd [1]: 0.431 ± 0.006 L/kg

B11: FAP-DOTAGA: FAP sdAb (SEQ ID NO. 5) conjugated with DOTAGA, used as control for chelating imaging radioisotope (conjugate)
VHH: QVQLLESGGGLVQPGGSLRLSCAASGFGFGNSLMSWVRRAPGKGLEWVSTIYPRGSFTDYADSVKGRFTISRDNSRNTLYLQMNSLRAEDTAVYYCATGWGRSSDYDPPGQGTLVTVSS
modifications: DOTAGA chelator conjugated
AUCall [2]: 1560 ± 88 ng·h/mL
Cl [2]: 10.7 ± 0.633 mL/min/kg
T1/2 [2]: 29.2 ± 0.12 min
Vd [2]: 0.315 ± 0.020 L/kg

B12: FAP-L007: FAP sdAb (SEQ ID NO. 5) conjugated with functional linker L007 (conjugate)
VHH: QVQLLESGGGLVQPGGSLRLSCAASGFGFGNSLMSWVRRAPGKGLEWVSTIYPRGSFTDYADSVKGRFTISRDNSRNTLYLQMNSLRAEDTAVYYCATGWGRSSDYDPPGQGTLVTVSS
modifications: functional linker L007 conjugated
AUCall [2]: 45700 ± 3230 ng·h/mL
Cl [2]: 0.367 ± 0.033 mL/min/kg
T1/2 [2]: 486 ± 6.84 min
Vd [2]: 0.206 ± 0.017 L/kg
